This is an account of results in PMC10195879.

Where two headings read alike, the source gives them in different places.

Assay [1] has as its target GMPCPP-stabilized microtubules (bovine brain tubulin, TAMRA-labeled) (bovine) (UniProt Q6B856). Description: single-molecule TIRF microscopy.
Assay [2] has the same target. As to the kind of experiment: single-molecule TIRF microscopy. This is another data set of the same source.

His-EGFP-L-TOG2-S (minimal construct of CLASP2α: short linker region, TOG2 domain and serine-arginine-rich region) (domain or fragment), sequence (O75122 whole entry, the tested form may be a part): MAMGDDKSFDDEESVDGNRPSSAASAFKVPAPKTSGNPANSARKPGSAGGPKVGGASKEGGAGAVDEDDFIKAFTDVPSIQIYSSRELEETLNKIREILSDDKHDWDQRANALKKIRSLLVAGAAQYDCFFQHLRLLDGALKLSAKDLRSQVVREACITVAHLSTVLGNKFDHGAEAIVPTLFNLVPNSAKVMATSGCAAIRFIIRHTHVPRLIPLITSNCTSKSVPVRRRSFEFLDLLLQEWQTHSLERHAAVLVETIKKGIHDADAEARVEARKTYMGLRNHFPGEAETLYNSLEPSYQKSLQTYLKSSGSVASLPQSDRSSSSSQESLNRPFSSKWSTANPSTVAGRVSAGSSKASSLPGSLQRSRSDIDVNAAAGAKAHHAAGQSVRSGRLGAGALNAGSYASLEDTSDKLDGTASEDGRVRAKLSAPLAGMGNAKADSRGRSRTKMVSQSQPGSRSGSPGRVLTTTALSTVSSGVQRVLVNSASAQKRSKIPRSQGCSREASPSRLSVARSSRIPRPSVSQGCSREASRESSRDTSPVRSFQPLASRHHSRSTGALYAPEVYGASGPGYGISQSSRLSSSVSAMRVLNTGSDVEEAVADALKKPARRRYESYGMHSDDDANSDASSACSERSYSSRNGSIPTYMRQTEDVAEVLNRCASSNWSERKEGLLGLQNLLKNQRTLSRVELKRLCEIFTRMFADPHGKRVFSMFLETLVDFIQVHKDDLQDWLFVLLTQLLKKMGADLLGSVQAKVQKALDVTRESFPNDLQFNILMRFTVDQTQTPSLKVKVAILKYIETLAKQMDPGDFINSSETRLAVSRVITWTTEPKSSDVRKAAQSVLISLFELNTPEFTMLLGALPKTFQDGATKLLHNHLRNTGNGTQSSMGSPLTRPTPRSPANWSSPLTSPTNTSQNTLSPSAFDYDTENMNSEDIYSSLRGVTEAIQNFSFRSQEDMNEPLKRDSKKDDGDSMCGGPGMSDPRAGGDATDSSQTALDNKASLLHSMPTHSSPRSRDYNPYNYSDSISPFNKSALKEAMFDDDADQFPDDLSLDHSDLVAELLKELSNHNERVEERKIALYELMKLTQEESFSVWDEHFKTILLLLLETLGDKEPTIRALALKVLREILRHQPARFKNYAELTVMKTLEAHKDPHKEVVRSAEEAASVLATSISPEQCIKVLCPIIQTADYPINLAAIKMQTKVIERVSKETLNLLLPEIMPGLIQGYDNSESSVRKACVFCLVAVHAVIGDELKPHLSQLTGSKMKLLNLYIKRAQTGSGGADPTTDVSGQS

As to “His-EGFP-L-TOG2-S (minimal construct of CLASP2α: short linker region, TOG2 domain and serine-arginine-rich region) (domain or fragment)”, the mean dwell time on microtubule ends in assay [1] worked out at 3.8 s; in assay [2] it was 0.53 s.
